We go through 6 molecules from patent US20220298218A1 (ANTAG THERAPEUTICS, published 2022).

The chains are these.
B1: AT640 (peptide)
peptide: [Aib]ETFISDYSIAMDKIK(C16 diacid)QQDFVNWLLAQKPSSGAPPPS-OH
modifications: N-terminus assumed
SMILES: CC[C@H](C)[C@H](NC(=O)[C@H](CO)NC(=O)[C@H](Cc1ccc(O)cc1)NC(=O)[C@H](CC(=O)O)NC(=O)[C@H](CO)NC(=O)[C@@H](NC(=O)[C@H](Cc1ccccc1)NC(=O)[C@@H](NC(=O)[C@H](CCC(=O)O)NC(=O)C(C)(C)N)[C@@H](C)O)[C@@H](C)CC)C(=O)N[C@@H](C)C(=O)N[C@@H](CCSC)C(=O)N[C@@H](CC(=O)O)C(=O)N[C@@H](CCCCN)C(=O)N[C@H](C(=O)N[C@@H](CCCCNC(=O)CCCCCCCCCCCCCCC(=O)O)C(=O)N[C@@H](CCC(N)=O)C(=O)N[C@@H](CCC(N)=O)C(=O)N[C@@H](CC(=O)O)C(=O)N[C@@H](Cc1ccccc1)C(=O)N[C@H](C(=O)N[C@@H](CC(N)=O)C(=O)N[C@@H](Cc1c[nH]c2ccccc12)C(=O)N[C@@H](CC(C)C)C(=O)N[C@@H](CC(C)C)C(=O)N[C@@H](C)C(=O)N[C@@H](CCC(N)=O)C(=O)N[C@@H](CCCCN)C(=O)N1CCC[C@H]1C(=O)N[C@@H](CO)C(=O)N[C@@H](CO)C(=O)NCC(=O)N[C@@H](C)C(=O)N1CCC[C@H]1C(=O)N1CCC[C@H]1C(=O)N1CCC[C@H]1C(=O)N[C@@H](CO)C(=O)O)C(C)C)[C@@H](C)CC
B2: AT642 (peptide)
peptide: PETFISDYSIAMDKIK(C16 diacid)QQDFVNWLLAQKPSSGAPPPS-OH
modifications: N-terminus assumed
SMILES: CC[C@H](C)[C@H](NC(=O)[C@H](CO)NC(=O)[C@H](Cc1ccc(O)cc1)NC(=O)[C@H](CC(=O)O)NC(=O)[C@H](CO)NC(=O)[C@@H](NC(=O)[C@H](Cc1ccccc1)NC(=O)[C@@H](NC(=O)[C@H](CCC(=O)O)NC(=O)[C@@H]1CCCN1)[C@@H](C)O)[C@@H](C)CC)C(=O)N[C@@H](C)C(=O)N[C@@H](CCSC)C(=O)N[C@@H](CC(=O)O)C(=O)N[C@@H](CCCCN)C(=O)N[C@H](C(=O)N[C@@H](CCCCNC(=O)CCCCCCCCCCCCCCC(=O)O)C(=O)N[C@@H](CCC(N)=O)C(=O)N[C@@H](CCC(N)=O)C(=O)N[C@@H](CC(=O)O)C(=O)N[C@@H](Cc1ccccc1)C(=O)N[C@H](C(=O)N[C@@H](CC(N)=O)C(=O)N[C@@H](Cc1c[nH]c2ccccc12)C(=O)N[C@@H](CC(C)C)C(=O)N[C@@H](CC(C)C)C(=O)N[C@@H](C)C(=O)N[C@@H](CCC(N)=O)C(=O)N[C@@H](CCCCN)C(=O)N1CCC[C@H]1C(=O)N[C@@H](CO)C(=O)N[C@@H](CO)C(=O)NCC(=O)N[C@@H](C)C(=O)N1CCC[C@H]1C(=O)N1CCC[C@H]1C(=O)N1CCC[C@H]1C(=O)N[C@@H](CO)C(=O)O)C(C)C)[C@@H](C)CC
B3: AT643 (peptide)
peptide: DTTFISDYSIAMDKIK(C16 diacid)QQDFVNWLLAQKPSSGAPPPS-OH
modifications: N-terminus assumed
SMILES: CC[C@H](C)[C@H](NC(=O)[C@H](CO)NC(=O)[C@H](Cc1ccc(O)cc1)NC(=O)[C@H](CC(=O)O)NC(=O)[C@H](CO)NC(=O)[C@@H](NC(=O)[C@H](Cc1ccccc1)NC(=O)[C@@H](NC(=O)[C@@H](NC(=O)[C@@H](N)CC(=O)O)[C@@H](C)O)[C@@H](C)O)[C@@H](C)CC)C(=O)N[C@@H](C)C(=O)N[C@@H](CCSC)C(=O)N[C@@H](CC(=O)O)C(=O)N[C@@H](CCCCN)C(=O)N[C@H](C(=O)N[C@@H](CCCCNC(=O)CCCCCCCCCCCCCCC(=O)O)C(=O)N[C@@H](CCC(N)=O)C(=O)N[C@@H](CCC(N)=O)C(=O)N[C@@H](CC(=O)O)C(=O)N[C@@H](Cc1ccccc1)C(=O)N[C@H](C(=O)N[C@@H](CC(N)=O)C(=O)N[C@@H](Cc1c[nH]c2ccccc12)C(=O)N[C@@H](CC(C)C)C(=O)N[C@@H](CC(C)C)C(=O)N[C@@H](C)C(=O)N[C@@H](CCC(N)=O)C(=O)N[C@@H](CCCCN)C(=O)N1CCC[C@H]1C(=O)N[C@@H](CO)C(=O)N[C@@H](CO)C(=O)NCC(=O)N[C@@H](C)C(=O)N1CCC[C@H]1C(=O)N1CCC[C@H]1C(=O)N1CCC[C@H]1C(=O)N[C@@H](CO)C(=O)O)C(C)C)[C@@H](C)CC
B4: AT639 (peptide)
peptide: VETFISDYSIAMDKIK(C16 diacid)QQDFVNWLLAQKPSSGAPPPS-OH
modifications: N-terminus assumed
SMILES: CC[C@H](C)[C@H](NC(=O)[C@H](CO)NC(=O)[C@H](Cc1ccc(O)cc1)NC(=O)[C@H](CC(=O)O)NC(=O)[C@H](CO)NC(=O)[C@@H](NC(=O)[C@H](Cc1ccccc1)NC(=O)[C@@H](NC(=O)[C@H](CCC(=O)O)NC(=O)[C@@H](N)C(C)C)[C@@H](C)O)[C@@H](C)CC)C(=O)N[C@@H](C)C(=O)N[C@@H](CCSC)C(=O)N[C@@H](CC(=O)O)C(=O)N[C@@H](CCCCN)C(=O)N[C@H](C(=O)N[C@@H](CCCCNC(=O)CCCCCCCCCCCCCCC(=O)O)C(=O)N[C@@H](CCC(N)=O)C(=O)N[C@@H](CCC(N)=O)C(=O)N[C@@H](CC(=O)O)C(=O)N[C@@H](Cc1ccccc1)C(=O)N[C@H](C(=O)N[C@@H](CC(N)=O)C(=O)N[C@@H](Cc1c[nH]c2ccccc12)C(=O)N[C@@H](CC(C)C)C(=O)N[C@@H](CC(C)C)C(=O)N[C@@H](C)C(=O)N[C@@H](CCC(N)=O)C(=O)N[C@@H](CCCCN)C(=O)N1CCC[C@H]1C(=O)N[C@@H](CO)C(=O)N[C@@H](CO)C(=O)NCC(=O)N[C@@H](C)C(=O)N1CCC[C@H]1C(=O)N1CCC[C@H]1C(=O)N1CCC[C@H]1C(=O)N[C@@H](CO)C(=O)O)C(C)C)[C@@H](C)CC
B5: AT641 (peptide)
peptide: GETFISDYSIAMDKIK(C16 diacid)QQDFVNWLLAQKPSSGAPPPS-OH
modifications: N-terminus assumed
SMILES: CC[C@H](C)[C@H](NC(=O)[C@H](CO)NC(=O)[C@H](Cc1ccc(O)cc1)NC(=O)[C@H](CC(=O)O)NC(=O)[C@H](CO)NC(=O)[C@@H](NC(=O)[C@H](Cc1ccccc1)NC(=O)[C@@H](NC(=O)[C@H](CCC(=O)O)NC(=O)CN)[C@@H](C)O)[C@@H](C)CC)C(=O)N[C@@H](C)C(=O)N[C@@H](CCSC)C(=O)N[C@@H](CC(=O)O)C(=O)N[C@@H](CCCCN)C(=O)N[C@H](C(=O)N[C@@H](CCCCNC(=O)CCCCCCCCCCCCCCC(=O)O)C(=O)N[C@@H](CCC(N)=O)C(=O)N[C@@H](CCC(N)=O)C(=O)N[C@@H](CC(=O)O)C(=O)N[C@@H](Cc1ccccc1)C(=O)N[C@H](C(=O)N[C@@H](CC(N)=O)C(=O)N[C@@H](Cc1c[nH]c2ccccc12)C(=O)N[C@@H](CC(C)C)C(=O)N[C@@H](CC(C)C)C(=O)N[C@@H](C)C(=O)N[C@@H](CCC(N)=O)C(=O)N[C@@H](CCCCN)C(=O)N1CCC[C@H]1C(=O)N[C@@H](CO)C(=O)N[C@@H](CO)C(=O)NCC(=O)N[C@@H](C)C(=O)N1CCC[C@H]1C(=O)N1CCC[C@H]1C(=O)N1CCC[C@H]1C(=O)N[C@@H](CO)C(=O)O)C(C)C)[C@@H](C)CC
B6: AT638 (peptide)
peptide: PGTFISDYSIAMDKIK(C16 diacid)QQDFVNWLLAQKPSSGAPPPS-OH
modifications: N-terminus assumed
SMILES: CC[C@H](C)[C@H](NC(=O)[C@H](CO)NC(=O)[C@H](Cc1ccc(O)cc1)NC(=O)[C@H](CC(=O)O)NC(=O)[C@H](CO)NC(=O)[C@@H](NC(=O)[C@H](Cc1ccccc1)NC(=O)[C@@H](NC(=O)CNC(=O)[C@@H]1CCCN1)[C@@H](C)O)[C@@H](C)CC)C(=O)N[C@@H](C)C(=O)N[C@@H](CCSC)C(=O)N[C@@H](CC(=O)O)C(=O)N[C@@H](CCCCN)C(=O)N[C@H](C(=O)N[C@@H](CCCCNC(=O)CCCCCCCCCCCCCCC(=O)O)C(=O)N[C@@H](CCC(N)=O)C(=O)N[C@@H](CCC(N)=O)C(=O)N[C@@H](CC(=O)O)C(=O)N[C@@H](Cc1ccccc1)C(=O)N[C@H](C(=O)N[C@@H](CC(N)=O)C(=O)N[C@@H](Cc1c[nH]c2ccccc12)C(=O)N[C@@H](CC(C)C)C(=O)N[C@@H](CC(C)C)C(=O)N[C@@H](C)C(=O)N[C@@H](CCC(N)=O)C(=O)N[C@@H](CCCCN)C(=O)N1CCC[C@H]1C(=O)N[C@@H](CO)C(=O)N[C@@H](CO)C(=O)NCC(=O)N[C@@H](C)C(=O)N1CCC[C@H]1C(=O)N1CCC[C@H]1C(=O)N1CCC[C@H]1C(=O)N[C@@H](CO)C(=O)O)C(C)C)[C@@H](C)CC

Where no end group is shown, it is not given here. [ ]: non-standard residue; d: D form. The star is where a group is joined. C16 diacid = O=C(O)CCCCCCCCCCCCCCC(=O)*; Aib = CC(C)(N)C(=O)O

The target of this assay is T1, human GIP receptor (human, UniProt P48546 22-466).
T1 sequence (looked up): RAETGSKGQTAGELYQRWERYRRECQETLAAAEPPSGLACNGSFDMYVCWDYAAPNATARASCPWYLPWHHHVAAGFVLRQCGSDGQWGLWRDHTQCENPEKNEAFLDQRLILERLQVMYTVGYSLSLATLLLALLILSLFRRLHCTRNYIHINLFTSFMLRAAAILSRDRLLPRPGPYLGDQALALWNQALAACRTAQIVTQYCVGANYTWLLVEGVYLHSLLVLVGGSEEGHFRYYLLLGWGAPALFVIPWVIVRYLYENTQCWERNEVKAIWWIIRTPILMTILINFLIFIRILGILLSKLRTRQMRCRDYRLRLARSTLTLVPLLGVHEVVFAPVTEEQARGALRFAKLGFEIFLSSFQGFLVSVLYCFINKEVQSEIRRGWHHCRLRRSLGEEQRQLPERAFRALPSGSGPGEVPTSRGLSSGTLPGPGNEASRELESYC
Briefly: cell-based or functional assay.
With B1, the “cAMP agonism % Emax” value stood at 0%, the “cAMP antagonism” value was 7.08 nM, the “cAMP antagonism % inhib” value amounted to 90% and the “cAMP antagonism pIC50” value worked out at 8.2.
The matching figures for B2: 0%, 35.5 nM, 92% and 7.5.
B3: the “cAMP agonism % Emax” value was found to be 0%, the “cAMP antagonism” value stood at 11.2 nM, the “cAMP antagonism % inhib” value worked out at 90% and the “cAMP antagonism pIC50” value was determined as 8.
Turning to B4, the “cAMP agonism % Emax” value is 0%, the “cAMP antagonism” value stood at 66.8 nM, the “cAMP antagonism % inhib” value turned out to be 100% and the “cAMP antagonism pIC50” value is 7.2.
For B5, the “cAMP agonism % Emax” value is 0%, the “cAMP antagonism” value worked out at 7.94 nM, the “cAMP antagonism % inhib” value was determined as 91% and the “cAMP antagonism pIC50” value worked out at 8.1.
On to B6, for which the “cAMP agonism % Emax” value came out at 0%, the “cAMP antagonism” value was found to be 14.7 nM, the “cAMP antagonism % inhib” value amounted to 85% and the “cAMP antagonism pIC50” value was 7.8.
